Several values for one entry are separate records, joined by “and”; a condition that tells them apart may be missing. Equal entries are not always repeated.

Data on 5 substances can be found in patent US20040229298A1.

The target of assay [1] is HPV16 E6 PDZ ligand peptide (biotinylated C-terminal peptide of the E6 protein of HPV 16) (human papillomavirus 16) (UniProt P03126). As to the kind of experiment: G assay ELISA, immobilised GST-PDZ, 10 uM biotinylated peptide. Background: An ELISA detects its analyte on a solid surface through an enzyme-linked reagent.
For assay [2] the target is unchanged. As to the kind of experiment: G assay ELISA, signal over GST-only well.
Assay [3] has as its target GST-VARTUL PDZ domain (number not stated) (human) (UniProt Q14160). As to the kind of experiment: G assay ELISA, E6 PL peptide titrated on constant GST-PDZ.
Assay [4] addresses GST-Magi3 PDZ domain 1 (human) (UniProt Q5TCQ9). The assay is described as above.
Assay [5] addresses GST-VARTUL PDZ domain (number not stated) (human) (UniProt Q14160). As to the kind of experiment: Matrix/G assay ELISA, E6 peptide titrated on GST-PDZ.
Assay [6] addresses GST-Magi3 PDZ domain 1 (human) (UniProt Q5TCQ9). The assay is described as above.
Assay [7] has as its target GST-MINT1 PDZ domains 1, 2 (human) (UniProt Q02410). As to the kind of experiment: G assay ELISA, 10 uM biotin peptide on anti-GST-captured GST-PDZ.
For assay [8], the target named is GST-Densin PDZ domain 1 (human). Described as above.
Assay [9] concerns the target GST-EBP50 PDZ domain 2, clone #168.2 (human). Described as above.
Assay [10] has as its target GST-KIAA1526 PDZ domain 1, clone #119.1 (human). The description is as above.
Assay [11] has as its target GST-PIST PDZ domain 1 (human). The assay is described as above.
For assay [12], the target named is GST-EBP50 PDZ domain 1, clone #341.1 (human). The assay is described as above.
Assay [13] addresses GST-KIAA1719 PDZ domain 5 (human). Described as above.
Assay [14] concerns the target GST-Magi2 PDZ domain 3 (human) (UniProt Q86UL8). The description is as above.
For assay [15], the target named is GST-PTPL1 PDZ domain 2 (human). The description is as above.
Assay [16] concerns the target GST-DLG-6 PDZ domain 1, clone #333.1 (human) (UniProt Q96JB8). Described as above.
In assay [17] the target is GST-HEMBA 1003117 PDZ domain 1, clone #226.2 (human). The assay is described as above.
For assay [18], the target named is GST-PAR3 PDZ domain 3, clone #278.1 (human). The description is as above.
Assay [19] addresses GST-MAGI 1 PDZ domain 5 (human). The assay is described as above.

Chain of GST-Magi2 PDZ domain 3 (human) (Q86UL8 other isoform, or with tags, fused parts or gaps limits assumed, form in doubt): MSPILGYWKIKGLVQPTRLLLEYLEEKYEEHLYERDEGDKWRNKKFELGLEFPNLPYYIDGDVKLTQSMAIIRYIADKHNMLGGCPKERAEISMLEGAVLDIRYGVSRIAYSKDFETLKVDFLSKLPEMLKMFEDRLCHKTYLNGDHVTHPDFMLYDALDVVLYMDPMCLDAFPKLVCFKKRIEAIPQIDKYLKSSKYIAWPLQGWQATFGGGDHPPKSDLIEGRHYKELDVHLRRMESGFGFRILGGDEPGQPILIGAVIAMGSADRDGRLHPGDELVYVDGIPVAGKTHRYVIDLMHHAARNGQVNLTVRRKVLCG
Chain of GST-Magi3 PDZ domain 1 (human) (Q5TCQ9 other isoform, or with tags, fused parts or gaps limits assumed, form in doubt): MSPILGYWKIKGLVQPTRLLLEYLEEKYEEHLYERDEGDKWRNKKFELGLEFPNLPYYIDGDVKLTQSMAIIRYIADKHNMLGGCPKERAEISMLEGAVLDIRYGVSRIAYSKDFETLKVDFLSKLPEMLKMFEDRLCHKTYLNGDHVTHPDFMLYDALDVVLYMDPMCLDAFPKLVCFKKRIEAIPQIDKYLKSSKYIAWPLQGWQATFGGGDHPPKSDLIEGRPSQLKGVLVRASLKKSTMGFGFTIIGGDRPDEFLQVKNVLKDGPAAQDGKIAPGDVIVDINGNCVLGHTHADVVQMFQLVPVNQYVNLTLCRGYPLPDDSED
Chain of GST-DLG-6 PDZ domain 1, clone #333.1 (human) (Q96JB8 other isoform, or with tags, fused parts or gaps): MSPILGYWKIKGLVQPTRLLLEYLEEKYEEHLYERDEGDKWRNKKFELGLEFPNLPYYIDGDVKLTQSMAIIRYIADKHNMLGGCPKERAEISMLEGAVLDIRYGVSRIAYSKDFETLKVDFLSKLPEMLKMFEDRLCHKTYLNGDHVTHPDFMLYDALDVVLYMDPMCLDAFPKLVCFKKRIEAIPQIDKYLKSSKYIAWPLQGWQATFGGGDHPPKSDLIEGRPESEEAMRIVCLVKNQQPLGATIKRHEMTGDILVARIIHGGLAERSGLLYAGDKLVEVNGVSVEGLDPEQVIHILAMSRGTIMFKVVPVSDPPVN
Chain of GST-VARTUL PDZ domain (number not stated) (human) (Q14160 other isoform, or with tags, fused parts or gaps limits assumed): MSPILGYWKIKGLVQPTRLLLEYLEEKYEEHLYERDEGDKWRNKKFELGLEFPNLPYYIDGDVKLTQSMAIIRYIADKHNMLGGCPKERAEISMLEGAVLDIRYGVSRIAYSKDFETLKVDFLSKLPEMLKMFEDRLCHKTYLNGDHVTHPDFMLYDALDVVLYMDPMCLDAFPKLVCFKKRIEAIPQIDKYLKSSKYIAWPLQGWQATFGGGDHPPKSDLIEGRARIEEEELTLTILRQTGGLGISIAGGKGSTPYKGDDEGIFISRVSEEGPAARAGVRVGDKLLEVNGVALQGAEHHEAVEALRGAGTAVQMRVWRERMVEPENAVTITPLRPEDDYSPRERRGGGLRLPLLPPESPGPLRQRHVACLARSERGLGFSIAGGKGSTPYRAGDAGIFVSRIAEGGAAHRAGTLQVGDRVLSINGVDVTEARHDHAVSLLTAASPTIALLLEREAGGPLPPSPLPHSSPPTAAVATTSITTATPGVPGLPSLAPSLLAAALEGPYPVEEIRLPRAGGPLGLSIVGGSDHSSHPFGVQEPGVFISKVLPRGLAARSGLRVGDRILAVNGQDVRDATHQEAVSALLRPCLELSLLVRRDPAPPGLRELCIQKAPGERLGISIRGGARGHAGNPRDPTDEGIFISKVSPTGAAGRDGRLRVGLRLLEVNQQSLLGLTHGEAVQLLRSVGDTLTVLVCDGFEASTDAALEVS
Chain of GST-MINT1 PDZ domains 1, 2 (human) (Q02410 other isoform, or with tags, fused parts or gaps limits assumed): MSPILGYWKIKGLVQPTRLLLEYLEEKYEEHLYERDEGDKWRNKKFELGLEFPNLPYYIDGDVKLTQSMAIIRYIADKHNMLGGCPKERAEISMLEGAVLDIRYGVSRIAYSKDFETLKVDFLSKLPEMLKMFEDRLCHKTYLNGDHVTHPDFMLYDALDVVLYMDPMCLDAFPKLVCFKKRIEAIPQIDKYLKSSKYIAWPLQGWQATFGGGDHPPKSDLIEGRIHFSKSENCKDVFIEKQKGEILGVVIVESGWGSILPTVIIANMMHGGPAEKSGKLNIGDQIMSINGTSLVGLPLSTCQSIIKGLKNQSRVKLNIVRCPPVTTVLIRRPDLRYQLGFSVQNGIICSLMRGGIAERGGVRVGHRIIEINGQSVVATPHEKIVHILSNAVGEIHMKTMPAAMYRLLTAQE

Substance GST-INADL PDZ domain 3 fusion protein had an Ave OD in [1] of 0.485 A450 nm. The substance further registered an OD S/N in [2] of 1.86.
As for “GST-Magi2 PDZ domain 5 fusion protein (from UniProt Q86UL8 920-1010)”, the Ave OD in assay [1] came out at 0.651 A450 nm. Also, the OD S/N in assay [2] was found to be 3.93.
GST-NeDLG PDZ domain 1 fusion protein: in [1], the Ave OD came out at 0.516 A450 nm. The substance also registered an OD S/N in [2] of 1.98.
Substance GST-PDZK1 PDZ domain 3 fusion protein had an Ave OD in assay [1] of 0.5 A450 nm. Besides, the OD S/N in [2] stood at 1.92.
“HPV16 E6 C-terminal PDZ ligand peptide (20 mer, biotinylated) (from UniProt P03126 139-158)”: the 50% effective concentration (EC50) in [3] came out at 940 nM; in assay [4] it was 310 nM; in assay [5], 940 nM; in [6] it was 310 nM. Also, the Ave OD is 0.365 A450 nm in assay [7]; 0.42 A450 nm and 0.35 A450 nm in assay [8]; 0.345 A450 nm in assay [9]; 0.425 A450 nm in [10]; 0.386 A450 nm in [11]; 0.43 A450 nm in [12]. For the same substance, the Ave OD in assay [13] is 0.39 A450 nm; in assay [14], 0.416 A450 nm and 0.359 A450 nm; in assay [15] it was 0.348 A450 nm; in assay [16], 0.349 A450 nm; in assay [17], 0.36 A450 nm; in assay [18], 0.352 A450 nm. Further, in assay [19], the Ave OD amounted to 0.432 A450 nm. Also, the OD S/N (ratio to GST only well) was 1.42 in [7]; 1.96 and 1.82 in assay [8]; 1.99 in assay [9]; 1.38 in assay [10]; 1.96 in assay [11]; 1.65 in assay [12]. Besides, the OD S/N (ratio to GST only well) in [13] was 1.81; in [14] it was 1.98 and 1.65; in assay [15] it was 1.8; in assay [16] it was 2.04; in assay [17], 1.66; in [18], 1.8. Besides, in assay [19], the OD S/N (ratio to GST only well) worked out at 1.77.

The EC50 is the midpoint of the concentration-response curve. A low value points to an effect from little substance.
